{
  "source": "paper PMC9981700",
  "about": "(2023)",
  "binders": {"B1": {"name": "Fibulin2 (Ala28–Leu1184), recombinant protein (natural protein)", "chain": "APRQDCTGVECPPLENCIEEALEPGACCATCVQQGCACEGYQYYDCLQGGFVRGRVPAGQSYFVDFGSTECSCPPGGGKISCQFMLCPELPPNCIEAVVVADSCPQCGQVGCVHAGHKYAAGHTVHLPPCRACHCPDAGGELICYQLPGCHGNFSDAEEGDPERHYEDPYSYDQEVAEVEAATALGGEVQAGAVQAGAGGPPAALGGGSQPLSTIQAPPWPAVLPRPTAAAALGPPAPVQAKARRVTEDSEEEEEEEEEREEMAVTEQLAAGGHRGLDGLPTTAPAGPSLPIQEERAEAGARAEAGARPEENLILDAQATSRSTGPEGVTHAPSLGKAALVPTQAVPGSPRDPVKPSPHNILSTSLPDAAWIPPTREVPRKPQVLPHSHVEEDTDPNSVHSIPRSSPEGSTKDLIETCCAAGQQWAIDNDECLEIPESGTEDNVCRTAQRHCCVSYLQEKSCMAGVLGAKEGETCGAEDNDSCGISLYKQCCDCCGLGLRVRAEGQSCESNPNLGYPCNHVMLSCCEGEEPLIVPEVRRPPEPAAAPRRVSEAEMAGREALSLGTEAELPNSLPGDDQDECLLLPGELCQHLCINTVGSYHCACFPGFSLQDDGRTCRPEGHPPQPEAPQEPALKSEFSQVASNTIPLPLPQPNTCKDNGPCKQVCSTVGGSAICSCFPGYAIMADGVSCEDINECVTDLHTCSRGEHCVNTLGSFHCYKALTCEPGYALKDGECEDVDECAMGTHTCQPGFLCQNTKGSFYCQARQRCMDGFLQDPEGNCVDINECTSLSEPCRPGFSCINTVGSYTCQRNPLICARGYHASDDGTKCVDVNECETGVHRCGEGQVCHNLPGSYRCDCKAGFQRDAFGRGCIDVNECWASPGRLCQHTCENTLGSYRCSCASGFLLAADGKRCEDVNECEAQRCSQECANIYGSYQCYCRQGYQLAEDGHTCTDIDECAQGAGILCTFRCLNVPGSYQCACPEQGYTMTANGRSCKDVDECALGTHNCSEAETCHNIQGSFRCLRFECPPNYVQVSKTKCERTTCHDFLECQNSPARITHYQLNFQTGLLVPAHIFRIGPAPAFTGDTIALNIIKGNEEGYFGTRRLNAYTGVVYLQRAVLEPRDFALDVEMKLWRQGSVTTFLAKMHIFFTTFAL"}},
  "molecular_target": "T1, Notch2 (Leu26–Gln530), recombinant protein (UniProt Q04721 26-530)",
  "T1 chain": "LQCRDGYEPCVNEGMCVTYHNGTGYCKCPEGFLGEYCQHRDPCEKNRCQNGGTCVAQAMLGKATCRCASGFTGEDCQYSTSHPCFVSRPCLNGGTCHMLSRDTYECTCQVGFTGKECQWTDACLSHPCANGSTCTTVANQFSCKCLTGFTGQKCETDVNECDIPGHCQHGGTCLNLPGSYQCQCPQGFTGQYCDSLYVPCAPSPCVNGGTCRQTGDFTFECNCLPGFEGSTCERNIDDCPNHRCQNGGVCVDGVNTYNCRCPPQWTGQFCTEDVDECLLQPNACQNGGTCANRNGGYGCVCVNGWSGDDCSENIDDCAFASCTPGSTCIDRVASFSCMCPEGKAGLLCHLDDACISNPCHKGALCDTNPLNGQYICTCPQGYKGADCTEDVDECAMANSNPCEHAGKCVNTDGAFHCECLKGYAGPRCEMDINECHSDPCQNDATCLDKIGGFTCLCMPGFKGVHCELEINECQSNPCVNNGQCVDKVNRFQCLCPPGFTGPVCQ",
  "assay": "BLI",
  "data": [
    {"binder": "B1", "values": [
      {"measurement": "Kd", "value": 1.22, "unit": "nM"}
    ]}
  ]
}
